According to patent US20060014669A1:

Target: VEGF
Experiment: cell-based or functional assay

Row | Substance | inhibition of VEGF-induced HUVEC proliferation in vitro, IC50 [µg/mL]
1 | Murine Flk1-Fc (murine Flk1 ectodomain fused to murine IgG2a Fc fragment, adenovirus-expressed) (from UniProt P35918 20-762) (Fc fusion) | 0.1
2 | Murine Flt1(1-3) soluble ectodomain with C-terminal 6xHis tag (adenovirus-expressed) (from UniProt P35969 23-328) (receptor) | 0.005
